Laboratory results as given in article PMC10786891, “Massively parallel profiling of RNA-targeting CRISPR-Cas13d”.
Positions count from the first letter of the chain named. Numbers in names are those of the source.

T1: EsCas13d, nuclease-dead (Eubacterium siraeum, UniProt B0MS50, R295A;H300A;R849A;H854A)
T1 sequence: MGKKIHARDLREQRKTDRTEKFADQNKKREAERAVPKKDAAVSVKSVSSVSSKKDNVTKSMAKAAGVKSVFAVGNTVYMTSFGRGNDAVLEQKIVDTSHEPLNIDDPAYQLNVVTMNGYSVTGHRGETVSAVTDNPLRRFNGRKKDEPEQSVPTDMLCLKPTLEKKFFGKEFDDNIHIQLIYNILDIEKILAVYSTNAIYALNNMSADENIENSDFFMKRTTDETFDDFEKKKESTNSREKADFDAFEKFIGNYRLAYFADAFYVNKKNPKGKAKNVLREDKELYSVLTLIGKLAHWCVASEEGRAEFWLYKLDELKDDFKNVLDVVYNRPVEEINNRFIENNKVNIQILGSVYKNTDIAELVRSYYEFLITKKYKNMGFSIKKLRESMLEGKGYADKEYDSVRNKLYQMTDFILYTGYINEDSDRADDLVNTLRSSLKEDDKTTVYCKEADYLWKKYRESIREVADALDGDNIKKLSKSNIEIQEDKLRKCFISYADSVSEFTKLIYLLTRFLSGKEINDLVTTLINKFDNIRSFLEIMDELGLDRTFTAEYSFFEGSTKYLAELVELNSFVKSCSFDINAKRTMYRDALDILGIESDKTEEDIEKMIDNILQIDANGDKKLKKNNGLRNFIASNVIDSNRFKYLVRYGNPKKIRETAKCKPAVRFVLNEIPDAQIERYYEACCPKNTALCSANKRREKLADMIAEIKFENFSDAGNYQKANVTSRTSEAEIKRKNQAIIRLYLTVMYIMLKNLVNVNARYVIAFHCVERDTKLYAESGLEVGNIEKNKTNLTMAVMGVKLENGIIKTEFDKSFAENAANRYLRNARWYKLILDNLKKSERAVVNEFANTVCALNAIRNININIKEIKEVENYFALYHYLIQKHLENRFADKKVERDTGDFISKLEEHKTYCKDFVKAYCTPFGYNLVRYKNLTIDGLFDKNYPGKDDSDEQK

B1: target 1 MT 5'PFS CCA 3'PFS UCC (mixed)
RNA 1: CACCCGUGCAAAAAUGCAGGGGUCUAAAACUGAGCGGAUAACCUCUCUAUGG
RNA 2: GGGAAUGGAUCCACAUCUACGAAUUCCCACCAUAGAGAGGUUAUCCGCUCAUCCAGAUCGGAAGAGCACACGU
B2: target 1 MT 5'PFS UCA 3'PFS CGG (mixed)
RNA 1: B1 RNA 1
RNA 2: B1 RNA 2 with C27U, U52C, C53G, C54G
B3: target 1 insA 3' of 21,insC 3' of 13 (mixed)
RNA 1: B1 RNA 1
RNA 2: GGGAAUGGAUCCACAUCUACGAAUUCGUACCAAUAGAGAGCGUUAUCCGCUCACCGAGAUCGGAAGAGCACACGU
B4: target 1 MT 5'PFS AAA 3'PFS AGA (mixed)
RNA 1: B1 RNA 1
RNA 2: B1 RNA 2 with C27A, C28A, U52A, C53G, C54A
B5: target 1 MT 5'PFS CUA 3'PFS ACG (mixed)
RNA 1: B1 RNA 1
RNA 2: B1 RNA 2 with C28U, U52A, C54G
B6: target 1 MT 5'PFS GUG 3'PFS UUC (mixed)
RNA 1: B1 RNA 1
RNA 2: B1 RNA 2 with C27G, C28U, A29G, C53U
B7: target 1 MT 5'PFS CCC 3'PFS CUA (mixed)
RNA 1: B1 RNA 1
RNA 2: B1 RNA 2 with A29C, U52C, C53U, C54A
B8: target 1 MT 5'PFS CCA 3'PFS AUG (mixed)
RNA 1: B1 RNA 1
RNA 2: B1 RNA 2 with U52A, C53U, C54G
B9: target 1 MT 5'PFS CAA 3'PFS AAU (mixed)
RNA 1: B1 RNA 1
RNA 2: B1 RNA 2 with C28A, U52A, C53A, C54U
B10: target 1 MT 5'PFS UGC 3'PFS UAG (mixed)
RNA 1: B1 RNA 1
RNA 2: B1 RNA 2 with C27U, C28G, A29C, C53A, C54G
B11: target 1 MT 5'PFS UCA 3'PFS AGU (mixed)
RNA 1: B1 RNA 1
RNA 2: B1 RNA 2 with C27U, U52A, C53G, C54U
B12: target 1 MT 5'PFS UCA 3'PFS AGG (mixed)
RNA 1: B1 RNA 1
RNA 2: B1 RNA 2 with C27U, U52A, C53G, C54G
B13: target 1 MT 5'PFS CUA 3'PFS ACC (mixed)
RNA 1: B1 RNA 1
RNA 2: B1 RNA 2 with C28U, U52A
B14: target 1 MT 5'PFS CAG 3'PFS AGU (mixed)
RNA 1: B1 RNA 1
RNA 2: B1 RNA 2 with C28A, A29G, U52A, C53G, C54U
B15: target 1 MT 5'PFS CUA 3'PFS ACA (mixed)
RNA 1: B1 RNA 1
RNA 2: B1 RNA 2 with C28U, U52A, C54A
B16: target 1 MT 5'PFS UCA 3'PFS AGA (mixed)
RNA 1: B1 RNA 1
RNA 2: B1 RNA 2 with C27U, U52A, C53G, C54A
B17: target 1 MT 5'PFS GUG 3'PFS UUU (mixed)
RNA 1: B1 RNA 1
RNA 2: B1 RNA 2 with C27G, C28U, A29G, C53U, C54U
B18: target 1 MT 5'PFS CCA 3'PFS AUA (mixed)
RNA 1: B1 RNA 1
RNA 2: B1 RNA 2 with U52A, C53U, C54A
B19: target 1 MT 5'PFS GUG 3'PFS CAC (mixed)
RNA 1: B1 RNA 1
RNA 2: B1 RNA 2 with C27G, C28U, A29G, U52C, C53A
B20: target 1 MT 5'PFS UCG 3'PFS UCU (mixed)
RNA 1: B1 RNA 1
RNA 2: B1 RNA 2 with C27U, A29G, C54U
B21: target 1 MT 5'PFS GUG 3'PFS CAU (mixed)
RNA 1: B1 RNA 1
RNA 2: B1 RNA 2 with C27G, C28U, A29G, U52C, C53A, C54U
B22: target 1 G15C,G17U (mixed)
RNA 1: B1 RNA 1
RNA 2: B1 RNA 2 with C27G, C28U, G35U, G37C, U52C, C54G
B23: target 1 MT 5'PFS AAC 3'PFS UUG (mixed)
RNA 1: B1 RNA 1
RNA 2: B1 RNA 2 with C27A, C28A, A29C, C53U, C54G
B24: target 1 MT 5'PFS GUG 3'PFS GUA (mixed)
RNA 1: B1 RNA 1
RNA 2: B1 RNA 2 with C27G, C28U, A29G, U52G, C53U, C54A
B25: target 1 MT 5'PFS GUG 3'PFS CAA (mixed)
RNA 1: B1 RNA 1
RNA 2: B1 RNA 2 with C27G, C28U, A29G, U52C, C53A, C54A
B26: target 1 MT 5'PFS GCG 3'PFS AUU (mixed)
RNA 1: B1 RNA 1
RNA 2: B1 RNA 2 with C27G, A29G, U52A, C53U, C54U
B27: target 1 MT 5'PFS CAG 3'PFS AGC (mixed)
RNA 1: B1 RNA 1
RNA 2: B1 RNA 2 with C28A, A29G, U52A, C53G
B28: target 1 MT 5'PFS GUG 3'PFS CAG (mixed)
RNA 1: B1 RNA 1
RNA 2: B1 RNA 2 with C27G, C28U, A29G, U52C, C53A, C54G
B29: target 1 MT 5'PFS GUG 3'PFS UUG (mixed)
RNA 1: B1 RNA 1
RNA 2: B1 RNA 2 with C27G, C28U, A29G, C53U, C54G
B30: target 1 MT 5'PFS CCC 3'PFS CUG (mixed)
RNA 1: B1 RNA 1
RNA 2: B1 RNA 2 with A29C, U52C, C53U, C54G
B31: target 1 MT 5'PFS CCA 3'PFS AUU (mixed)
RNA 1: B1 RNA 1
RNA 2: B1 RNA 2 with U52A, C53U, C54U
B32: target 1 MT 5'PFS AGC 3'PFS CUA (mixed)
RNA 1: B1 RNA 1
RNA 2: B1 RNA 2 with C27A, C28G, A29C, U52C, C53U, C54A
B33: target 1 MT 5'PFS UCA 3'PFS CGC (mixed)
RNA 1: B1 RNA 1
RNA 2: B1 RNA 2 with C27U, U52C, C53G
B34: target 1 MT 5'PFS AGC 3'PFS CUU (mixed)
RNA 1: B1 RNA 1
RNA 2: B1 RNA 2 with C27A, C28G, A29C, U52C, C53U, C54U
B35: target 1 MT 5'PFS GUG 3'PFS UUA (mixed)
RNA 1: B1 RNA 1
RNA 2: B1 RNA 2 with C27G, C28U, A29G, C53U, C54A
B36: target 1 MT 5'PFS UUG 3'PFS UUA (mixed)
RNA 1: B1 RNA 1
RNA 2: B1 RNA 2 with C27U, C28U, A29G, C53U, C54A
B37: target 1 MT 5'PFS CCA 3'PFS UCA (mixed)
RNA 1: B1 RNA 1
RNA 2: B1 RNA 2 with C54A
B38: target 1 MT 5'PFS CUA 3'PFS ACU (mixed)
RNA 1: B1 RNA 1
RNA 2: B1 RNA 2 with C28U, U52A, C54U
B39: target 1 insC 3' of 11,insU 3' of 5 (mixed)
RNA 1: B1 RNA 1
RNA 2: GGGAAUGGAUCCACAUCUACGAAUUCGUACCAUAGAGAGGUCUAUCCGUCUCACCGAGAUCGGAAGAGCACACGU
B40: target 1 C4U,C7U (mixed)
RNA 1: B1 RNA 1
RNA 2: B1 RNA 2 with C27G, C28U, C45U, C48U, U52C, C54G

Molecular target: T1, EsCas13d, nuclease-dead
Assay: crRNA (strand 1, pre-loaded); Mg2+; 40 mM Tris-HCl pH 7.5, 150 mM NaCl, 6 mM MgCl2, 1 mM DTT, 0.1% Tween-20, 0.2 mg/ml BSA; 25 C; 10 min per concentration, then washed
Conditions: tags: His6-TwinStrep-SUMO cleaved; N-terminal SNAP kept (SNAP-Surface 488); label: 3' end held by stalled T7 RNA polymerase

First: B1
Second: B2
The Kd of the first is 12-fold lower: about 4.5 nM for the first, 52.5 ± 25 nM for the second. The first binds more tightly here.

B3 and B4 are within error of each other in Kd: 32 ± 4 nM for the first, 33 ± 12.5 nM for the second.

Compared with B5, B6 is 1.9-fold higher in Kd: 6.05 ± 1.8 nM for the first, 11.6 ± 0.9 nM for the second. The first binds more tightly here.

Going from B7 to B8, the Kd falls from about 17 nM to about 8.15 nM (2.1-fold).

First: B9
Second: B10
The Kd of the first is 1.6-fold higher: about 25.5 nM for the first, 15.9 ± 4.1 nM for the second.

Compared with B11, B12 is 4.1-fold higher in Kd: 24.6 ± 5.5 nM for the first, about 100 nM for the second. The first binds more tightly here.

Compared with B13, B14 is 11-fold higher in Kd: 5 ± 1.85 nM for the first, 57 ± 22.5 nM for the second. The first binds more tightly here.

B15 and B16 are within error of each other in Kd: 9.65 ± 2.5 nM for the first, 20.5 ± 8.5 nM for the second.

B17 and B18 are within 1.5-fold of each other in Kd: 9.05 ± 0.495 nM for the first, 6.1 ± 1.7 nM for the second.

B19 and B20 are within error of each other in Kd: 26.6 ± 2.8 nM for the first, 36 ± 10.5 nM for the second.

First: B21
Second: B22
The Kd of the first is 4.9-fold lower: 18.4 ± 2 nM for the first, 90 ± 40 nM for the second. The first binds more tightly here.

B23 and B24 are within error of each other in Kd: 15.3 ± 3.3 nM for the first, 12.2 ± 1.6 nM for the second.

B25 and B26 are within error of each other in Kd: 31 ± 4.5 nM for the first, 20 ± 7.5 nM for the second.

B27 and B28 are within error of each other in Kd: 20.5 ± 9 nM for the first, 22.8 ± 2 nM for the second.

B29 and B30 are within 1.5-fold of each other in Kd: 7.86 ± 0.47 nM for the first, about 9.5 nM for the second.

First: B31
Second: B32
The Kd of the first is 5.3-fold lower: 2.62 ± 0.595 nM for the first, 13.9 ± 4.8 nM for the second. The first binds more tightly here.

B33 and B34 are within error of each other in Kd: 10.8 ± 3.85 nM for the first, 9.35 ± 3.2 nM for the second.

First: B35
Second: B36
The Kd of the first is 1.9-fold lower: 10.6 ± 0.65 nM for the first, 20.1 ± 3.2 nM for the second.

B37 and B38 are within error of each other in Kd: 6.55 ± 1.8 nM for the first, 4.95 ± 1 nM for the second.

Going from B39 to B40, the Kd rises from 15 ± 0.8 nM to 29 ± 5 nM (1.9-fold).
